By Kd is commonly meant a measure of binding affinity in units of concentration.

The values below come from PMC4245953, “Hug1 is an intrinsically disordered protein that inhibits ribonucleotide reductase activity by directly binding Rnr2 subunit” (Nucleic Acids Research, 2014).

Experiment [1] has as its target Rnr2-Rnr4 (Saccharomyces cerevisiae) (UniProt P09938). The conditions noted are these: cited from earlier work.
In experiment [2] the target is Rnr1 (Saccharomyces cerevisiae) (UniProt P21524). The conditions noted are these: cited from earlier work.
The target of experiment [3] is RNR R2 (Mus musculus) (UniProt P11157). The conditions noted are these: cited from earlier work.
Experiment [4] deals with RNR R2 (Escherichia coli) (UniProt P69924). The conditions noted are these: cited from earlier work.
The target of experiment [5] is Cdc22 (R1) (Schizosaccharomyces pombe) (UniProt P36602). The conditions noted are these: cited from earlier work.
Experiment [6] addresses T1, (His)6-Rnr2-Rnr4 complex (S. cerevisiae, UniProt P09938 1-399; P49723 1-345).
T1 construct: Rnr2, S. cerevisiae; Rnr4, S. cerevisiae; also called Rnr2/4; source: E. coli BL21 (DE3) gold, co-expressed; purified (Ni-NTA, anion exchange) for NMR; 'purified' by the text or 'soluble extracts' by the legend in the pull-down
T1 sequence (looked up) 1: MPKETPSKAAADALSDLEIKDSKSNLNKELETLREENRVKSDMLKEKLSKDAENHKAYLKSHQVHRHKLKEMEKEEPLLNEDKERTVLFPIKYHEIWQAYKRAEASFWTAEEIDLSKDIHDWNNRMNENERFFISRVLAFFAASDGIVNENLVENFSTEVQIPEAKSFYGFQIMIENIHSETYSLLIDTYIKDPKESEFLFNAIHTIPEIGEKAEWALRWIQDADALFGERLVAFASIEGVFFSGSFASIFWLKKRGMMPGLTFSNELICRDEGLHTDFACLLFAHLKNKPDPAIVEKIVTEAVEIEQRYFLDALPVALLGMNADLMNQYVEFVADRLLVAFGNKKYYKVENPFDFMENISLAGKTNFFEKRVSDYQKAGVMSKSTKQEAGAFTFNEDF
T1 sequence (looked up) 2: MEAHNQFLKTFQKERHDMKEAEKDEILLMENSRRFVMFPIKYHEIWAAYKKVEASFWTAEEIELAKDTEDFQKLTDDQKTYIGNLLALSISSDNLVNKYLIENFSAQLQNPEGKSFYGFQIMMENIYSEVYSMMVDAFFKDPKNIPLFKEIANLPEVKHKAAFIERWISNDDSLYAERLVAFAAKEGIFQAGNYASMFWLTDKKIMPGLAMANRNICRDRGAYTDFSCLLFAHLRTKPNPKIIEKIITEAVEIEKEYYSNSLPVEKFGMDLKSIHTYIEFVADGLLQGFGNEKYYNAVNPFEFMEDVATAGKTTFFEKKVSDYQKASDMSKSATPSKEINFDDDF
The experiment is described as follows: NMR titration; 1H-15N HSQC of 15N-Hug1 with increasing unlabeled (His)6-Rnr2-Rnr4; Tris-d11 10 mM pH 7.5; 22°C (50 uM Hug1, ratios 1:0.125 to 1:1.6, global fit of four peaks, 1:1 model) and 9°C (16.4 uM Hug1, ratio 1:2). The conditions noted are these: both partners purified.

Cdc22 (R1) (Schizosaccharomyces pombe), sequence (P36602 whole entry): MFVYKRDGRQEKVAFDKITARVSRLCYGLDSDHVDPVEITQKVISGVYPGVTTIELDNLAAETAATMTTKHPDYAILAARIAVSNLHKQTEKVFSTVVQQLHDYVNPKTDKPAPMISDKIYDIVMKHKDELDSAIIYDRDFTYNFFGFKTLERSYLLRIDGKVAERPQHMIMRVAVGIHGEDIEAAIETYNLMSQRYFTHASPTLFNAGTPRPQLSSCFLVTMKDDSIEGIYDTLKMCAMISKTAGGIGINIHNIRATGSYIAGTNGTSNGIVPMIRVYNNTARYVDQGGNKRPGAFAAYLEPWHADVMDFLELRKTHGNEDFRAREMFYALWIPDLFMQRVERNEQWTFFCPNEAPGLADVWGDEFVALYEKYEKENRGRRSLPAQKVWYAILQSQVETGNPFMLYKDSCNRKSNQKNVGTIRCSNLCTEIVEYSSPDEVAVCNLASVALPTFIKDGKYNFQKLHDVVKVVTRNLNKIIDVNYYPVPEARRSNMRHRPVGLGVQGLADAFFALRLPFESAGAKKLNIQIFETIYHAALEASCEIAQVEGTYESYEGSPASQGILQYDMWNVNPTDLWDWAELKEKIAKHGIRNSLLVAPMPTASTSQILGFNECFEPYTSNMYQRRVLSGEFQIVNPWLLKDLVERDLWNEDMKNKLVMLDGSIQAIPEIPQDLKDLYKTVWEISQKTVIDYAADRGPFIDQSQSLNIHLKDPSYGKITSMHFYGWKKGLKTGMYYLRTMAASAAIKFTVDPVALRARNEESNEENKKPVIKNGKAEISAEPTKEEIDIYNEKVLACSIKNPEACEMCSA
RNR R2 (Mus musculus), sequence (P11157 whole entry): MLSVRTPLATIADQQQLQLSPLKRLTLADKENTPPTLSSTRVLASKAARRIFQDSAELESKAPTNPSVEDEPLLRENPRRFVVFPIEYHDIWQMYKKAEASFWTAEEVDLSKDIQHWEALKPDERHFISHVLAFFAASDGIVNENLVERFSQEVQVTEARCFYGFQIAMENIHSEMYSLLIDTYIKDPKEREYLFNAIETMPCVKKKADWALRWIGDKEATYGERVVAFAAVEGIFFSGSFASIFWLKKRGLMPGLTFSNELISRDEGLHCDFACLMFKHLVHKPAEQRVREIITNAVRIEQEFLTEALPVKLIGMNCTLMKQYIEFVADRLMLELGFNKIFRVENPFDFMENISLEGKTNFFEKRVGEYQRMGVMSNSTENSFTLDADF
Rnr1 (Saccharomyces cerevisiae), sequence (P21524 whole entry): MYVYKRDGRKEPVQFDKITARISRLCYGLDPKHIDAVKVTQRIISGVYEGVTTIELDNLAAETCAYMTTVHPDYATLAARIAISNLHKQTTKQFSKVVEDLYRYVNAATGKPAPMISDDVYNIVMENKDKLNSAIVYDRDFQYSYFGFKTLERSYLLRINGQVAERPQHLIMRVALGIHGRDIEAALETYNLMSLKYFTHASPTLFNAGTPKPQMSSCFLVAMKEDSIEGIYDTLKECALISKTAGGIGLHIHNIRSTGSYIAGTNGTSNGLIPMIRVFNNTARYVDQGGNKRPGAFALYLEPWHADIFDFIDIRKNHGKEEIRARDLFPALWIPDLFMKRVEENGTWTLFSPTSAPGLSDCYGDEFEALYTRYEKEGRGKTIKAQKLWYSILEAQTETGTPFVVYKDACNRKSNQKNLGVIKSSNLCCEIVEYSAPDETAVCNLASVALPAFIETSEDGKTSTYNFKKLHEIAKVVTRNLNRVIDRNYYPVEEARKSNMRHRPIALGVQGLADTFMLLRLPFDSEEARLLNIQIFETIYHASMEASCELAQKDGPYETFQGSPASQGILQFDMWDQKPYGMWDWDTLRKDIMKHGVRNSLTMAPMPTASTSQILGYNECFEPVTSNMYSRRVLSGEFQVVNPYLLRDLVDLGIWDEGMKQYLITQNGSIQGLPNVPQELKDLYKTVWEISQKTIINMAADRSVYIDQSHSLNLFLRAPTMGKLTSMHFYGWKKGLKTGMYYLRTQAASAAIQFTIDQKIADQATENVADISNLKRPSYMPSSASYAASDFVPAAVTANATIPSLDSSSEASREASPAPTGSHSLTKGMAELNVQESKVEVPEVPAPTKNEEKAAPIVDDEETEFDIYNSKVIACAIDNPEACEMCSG
RNR R2 (Escherichia coli), sequence (P69924 2-376): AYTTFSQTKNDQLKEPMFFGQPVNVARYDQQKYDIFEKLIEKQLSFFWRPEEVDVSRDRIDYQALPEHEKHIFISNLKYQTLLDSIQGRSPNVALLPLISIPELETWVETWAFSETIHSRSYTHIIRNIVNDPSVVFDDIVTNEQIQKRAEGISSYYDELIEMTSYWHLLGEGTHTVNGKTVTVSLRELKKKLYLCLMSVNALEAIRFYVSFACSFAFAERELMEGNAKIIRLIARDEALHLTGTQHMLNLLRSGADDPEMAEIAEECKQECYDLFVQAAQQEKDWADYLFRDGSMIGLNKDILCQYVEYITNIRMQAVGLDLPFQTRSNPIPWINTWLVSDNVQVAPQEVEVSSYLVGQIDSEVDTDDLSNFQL

As for Dif1 (from UniProt O13577), the Kd in experiment [1] was 600 nM.
In the case of Sml1 (from UniProt Q04964), the Kd in experiment [2] was 400 nM.
As to RNR R1 (from UniProt P07742), the Kd in experiment [3] is 100 nM.
RNR R1 (from UniProt P00452): the Kd in experiment [4] was 100 nM.
Regarding Spd1 (from UniProt Q10585), in experiment [5], the Kd is 2400 nM.

B1: Recombinant Hug1 (tags cleaved), 15N-labeled (natural protein, S. cerevisiae, UniProt Q6Q5K6 1-68, looked up)
chain: MTMDQGLNPKQFFLDDVVLQDTLCSMSNRVNKSVKTGYLFPKDHVPSANIIAVERRGGLSDIGKNTSN
modifications: also: uniformly 15N-labeled
notes: Hug1, S. cerevisiae, released from (His)6-GST-TEV site-Hug1 by TEV protease; calculated mass 7.5 kDa; protein of 68 residues; also called 15N-Hug1; purified recombinant Hug1; source: E. coli BL21 (DE3) gold, purified (Glutathione-agarose, TEV cleavage, Ni-NTA flow-through); not shown: His6, N-terminal, cleaved; GST, N-terminal, cleaved
On to B1, for which the Kd in experiment [6] came out at 1600 ± 600 nM.
